Test results from paper PMC10641296.

Target: SCM-2 on the surface of S. canis strain IMT40096 (Streptococcus canis (endogenous in strain IMT40096))
Test: flow cytometry on cells; S. canis bacteria (mid-exponential phase) incubated with FITC-labeled human fibrinogen in PBS, 30 min at 37°C, fixed; MFI normalized to SCM-1 S. canis G361; scm2 knock-out of IMT40096 as control

Substance: FITC-labeled human fibrinogen (from UniProt P02671 36-866; P02675 45-491; P02679 27-453) (complex)
- fold of fluorescence against S. canis G361: > 3 fold of G361
